Assay results as given in the supplement of paper PMC9112550, “Optimization of the antimicrobial peptide Bac7 by deep mutational scanning” (BMC Biology, 2022).

These sequences were tested on Escherichia coli TOP10 (assay: shrunken log2 fold change of peptide-encoding DNA abundance (4.5 h post-induction vs induction); higher = less antimicrobial activity (less host growth inhibition)). Settings: time post-induction: 4.5 h; library: site-saturation at positions 5, 18, 19, 20.
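Further: peptides expressed intracellularly from a pBAD plasmid library in pooled LB shake-flask culture, induced with 0.3% L-arabinose, DNA abundance read by NGS, three biological replicates, DESeq2 with apeglm shrinkage.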

Sequence | shrunken log2 fold change
RRIRVRPPRLPRPRPRPYAYPRP | 0.0587
RRIRYRPPRLPRPRPRPKTHPRP | -0.661
RRIRQRPPRLPRPRPRPGESPRP | 0.0357
RRIRTRPPRLPRPRPRPMIMPRP | -0.437
RRIRLRPPRLPRPRPRPPCRPRP | 0.0548
RRIRSRPPRLPRPRPRPHFMPRP | -0.48
RRIRHRPPRLPRPRPRPSGCPRP | -0.162
RRIRPRPPRLPRPRPRPKCYPRP | -0.193
RRIRYRPPRLPRPRPRPVSGPRP | -0.128
RRIRCRPPRLPRPRPRPDKRPRP | 0.00837
RRIRDRPPRLPRPRPRPCVKPRP | -0.161
RRIRQRPPRLPRPRPRPGCRPRP | 0.342
RRIRYRPPRLPRPRPRPPGIPRP | 0.0348
RRIRPRPPRLPRPRPRPGCVPRP | 0.447
RRIRPRPPRLPRPRPRPHSYPRP | 0.0057
RRIRNRPPRLPRPRPRPWCRPRP | -0.525
RRIRLRPPRLPRPRPRPDGNPRP | -0.0479
RRIRVRPPRLPRPRPRPMVPPRP | -0.189
RRIRCRPPRLPRPRPRPLFLPRP | -0.601
RRIRTRPPRLPRPRPRPPLVPRP | 0.184
RRIRCRPPRLPRPRPRPVDWPRP | 1.33
RRIRSRPPRLPRPRPRPLYEPRP | -0.438
RRIRPRPPRLPRPRPRPAKHPRP | -0.023
RRIRYRPPRLPRPRPRPYFKPRP | -1.83
RRIRLRPPRLPRPRPRPERIPRP | 0.0484

Sequence | shrunken log2 fold change
RRIRIRPPRLPRPRPRPSEYPRP | -0.0435
RRIRLRPPRLPRPRPRPDAYPRP | -0.281
RRIRMRPPRLPRPRPRPRSAPRP | 1.36
RRIRVRPPRLPRPRPRPQKGPRP | -0.036
RRIRRRPPRLPRPRPRPASPPRP | 0.314
RRIRIRPPRLPRPRPRPNWIPRP | -0.565
RRIRNRPPRLPRPRPRPIFEPRP | 0.0552
RRIRGRPPRLPRPRPRPEHMPRP | 0.396
RRIRCRPPRLPRPRPRPWPDPRP | 0.0862
RRIRQRPPRLPRPRPRPEVVPRP | 0.196
RRIRLRPPRLPRPRPRPRNHPRP | -0.44
RRIRHRPPRLPRPRPRPIRRPRP | 0.0591
RRIRARPPRLPRPRPRPHKPPRP | 0.148
RRIRYRPPRLPRPRPRPAGHPRP | -0.0387
RRIRIRPPRLPRPRPRPMYCPRP | -0.183
RRIRNRPPRLPRPRPRPPHLPRP | 0.155
RRIRYRPPRLPRPRPRPPCWPRP | 0.263
RRIRARPPRLPRPRPRPSHSPRP | -0.101
RRIRCRPPRLPRPRPRPVCVPRP | -0.0801
RRIRQRPPRLPRPRPRPKTTPRP | -0.636
RRIRYRPPRLPRPRPRPQIFPRP | 0.0295
RRIRHRPPRLPRPRPRPVAIPRP | 2.06
RRIRQRPPRLPRPRPRPNTWPRP | -0.191
RRIRKRPPRLPRPRPRPQYCPRP | -0.0171
RRIRPRPPRLPRPRPRPETGPRP | -0.0114

Sequence | shrunken log2 fold change
RRIRQRPPRLPRPRPRPWPAPRP | 0.0128
RRIRTRPPRLPRPRPRPQFCPRP | -0.486
RRIRDRPPRLPRPRPRPVMFPRP | 0.16
RRIRVRPPRLPRPRPRPNHLPRP | -0.694
RRIRNRPPRLPRPRPRPLQTPRP | -0.0644
RRIRNRPPRLPRPRPRPCWKPRP | -0.0657
RRIRKRPPRLPRPRPRPYQGPRP | -0.231
RRIRYRPPRLPRPRPRPEGPPRP | 0.12
RRIRSRPPRLPRPRPRPYNTPRP | -1.1
RRIRWRPPRLPRPRPRPSPPPRP | 0.423
RRIRPRPPRLPRPRPRPLFHPRP | -0.131
RRIRIRPPRLPRPRPRPQFTPRP | -0.986
RRIRYRPPRLPRPRPRPTKYPRP | -0.836
RRIRLRPPRLPRPRPRPAMAPRP | 0.00127
RRIRVRPPRLPRPRPRPMFHPRP | -0.22
RRIRDRPPRLPRPRPRPMHDPRP | 0.122
RRIRIRPPRLPRPRPRPYWHPRP | -0.718
RRIRNRPPRLPRPRPRPQHLPRP | -0.517
RRIRARPPRLPRPRPRPTTWPRP | 0.423
RRIRARPPRLPRPRPRPTWTPRP | 0.425
RRIRFRPPRLPRPRPRPNELPRP | -0.0316
RRIRSRPPRLPRPRPRPDSSPRP | -0.418
RRIRTRPPRLPRPRPRPENQPRP | 0.0593
RRIRSRPPRLPRPRPRPIYDPRP | 0.0384
RRIRFRPPRLPRPRPRPQWSPRP | -0.485
